Measured values published in paper PMC5460842.

Biological target: FLAG-EGFR incorporated into nanolipoprotein particles (EGFR-NLP) (not stated ("mammalian")) (UniProt P00533)
Assay: BLI; competition with biotinylated EGF on sensor, 100 nM EGFR-NLP; given as EC50

IC50: 5.87 nM
Substance: cetuximab
